Results from patent US20120196763.

Tests used:
[1] = target: T1, recombinant A. fumigatus ACP (acyl carrier protein), truncated form, pET30 fusion protein
T1 chain: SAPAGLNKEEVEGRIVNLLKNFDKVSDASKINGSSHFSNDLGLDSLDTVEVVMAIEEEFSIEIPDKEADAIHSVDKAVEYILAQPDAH

[2] = target: T2, recombinant C. albicans ACPg (CaO19.8439), pET30 fusion protein
T2 chain: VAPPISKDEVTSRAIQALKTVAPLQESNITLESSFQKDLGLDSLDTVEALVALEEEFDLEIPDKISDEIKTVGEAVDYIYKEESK

[3] = target: T3, recombinant C. albicans ACPe (CaO19.9975), pET30 fusion protein
T3 chain: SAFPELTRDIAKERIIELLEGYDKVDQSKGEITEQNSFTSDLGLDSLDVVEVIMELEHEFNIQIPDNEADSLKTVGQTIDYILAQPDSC

| Protein | labelling of ACP with CoA-Bodipy TMR, resolved on SDS-PAGE gel [1] | pantetheinylation of ACP with CoA-Bodipy TMR, SDS-PAGE gel under UV light [1] | pantetheinylation of ACP with CoA-Bodipy TMR, SDS-PAGE gel under UV light [2] | pantetheinylation of ACP with CoA-Bodipy TMR, SDS-PAGE gel under UV light [3] | PPTB activity assay with ACP as substrate [1] |
| --- | --- | --- | --- | --- | --- |
| recombinant A. fumigatus PPTB (phosphopantetheinyl transferase B), PPTB-NusA fusion protein (protein) MKLIPFPYPLNIGTDVVHLPRILRLINRPDYFHRFTRRILHEQEQRDFRTRFSLPPPSSGAEKTGLNPITPDMARWLAGRFAAKEAARKAAPAGASSLGWKDVIVRVGEADKGRPEIVYLDPMGCGETGGGRVGKLSISHDGDYVVATVLAAG | recombinant PPTB was able to label recombinant ACP (resolved on SDS-PAGE gel) in the presence of magnesium ions and CoA-Bodipy TMR | The A. fumigatus PPTB was able to pantetheinylate both A. fumigatus ACP and ACPg | The A. fumigatus PPTB was able to pantetheinylate both A. fumigatus ACP and ACPg | whereas ACPe was pantetheinylated weakly | – |
| recombinant C. albicans PPTB (CaO19.4812), expressed from pET43.1 (protein) MPKVGTVLGIGVDIVNSVRFERLLTAKSTSFGTRLSKRILHPEHELPLFQQMHSQRQAQYLTGSWAAKEALFKTLDLNSQKEFNFNQWYRFHDSNGKPFIWNDRYKLSDEEFHLSISHDDSLVIATVLRQKVYQI | – | ACPe and the A. fumigatus ACP were pantetheinylated weakly | The C. albicans PPTB pantetheinylated ACPg strongly | ACPe and the A. fumigatus ACP were pantetheinylated weakly | Assays for C. albicans PPTB activity using A. fumigatus ACP as a substrate gave a poor signal |
